Measured values as given in publication PMC3423377 (2012).

Target: ML/HLA-A2 pMHC, soluble recombinant (human | )
Assay: SPR

B1: fML soluble recombinant Fab (Fab, V domains shown)
VH: EVQLVESGGGLVQPGGSLRLSCAASGFNFSYYSIHWVRQAPGKGLEWVASIYSSSSYTSYADSVKGRFTISADTSKNTAYLQMNSLRAEDTAVYYCARGYYGEWGMDYWGQGTLVTVSS
VL: DIQMTQSPSSLSASVGDRVTITCRASQSVSSAVAWYQQKPGKAPKLLIYSASSLYSGVPSRFSGSRSGTDFTLTISSLQPEDFATYYCQQWNAYPVTFGQGTKVEIK
**Q.** Which koff does the source give for B1 here?
**A.** The koff was 0.016 s⁻¹.
